Reference: paper PMC7265302

Target: MavC, wild type (Legionella pneumophila) (UniProt Q5ZTL4)
Assay: ITC

“Lpg2149, wild type (from UniProt Q5ZTL2 1-119) (natural protein)” showed a Kd of 0.57 nM.
